Source: patent US20150203577A1 (Chugai, published 2015)
Where a chain is given by its changes, count along the chain named.

T1: mouse FcγRIII (mouse, UniProt P08508 31-215)
T1 construct: Extracellular domain with C-terminal His tag; also called mFcγRIII; mFcgRIII
T1 chain: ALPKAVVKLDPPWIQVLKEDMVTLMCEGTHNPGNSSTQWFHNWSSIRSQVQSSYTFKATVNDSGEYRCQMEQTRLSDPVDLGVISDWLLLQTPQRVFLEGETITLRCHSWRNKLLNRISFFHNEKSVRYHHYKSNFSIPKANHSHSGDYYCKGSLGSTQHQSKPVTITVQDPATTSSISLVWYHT

T2: mouse FcγRII (mouse, UniProt P08101 30-210)
T2 construct: Extracellular domain with C-terminal His tag; also called mFcγRII; mFcgRII
T2 sequence: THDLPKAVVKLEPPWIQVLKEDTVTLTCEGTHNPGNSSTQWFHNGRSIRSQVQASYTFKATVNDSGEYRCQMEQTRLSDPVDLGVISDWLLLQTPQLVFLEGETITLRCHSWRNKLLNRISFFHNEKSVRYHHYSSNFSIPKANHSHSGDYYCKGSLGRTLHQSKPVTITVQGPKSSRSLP

B1: MB808 (antibody, mouse IgG1, kappa)
heavy: QVQLQESGPGLVKPSETLSLTCAVSGHSISHDHAWSWVRQPPGEGLEWIGFISYSGITNYNPSLQGRVTISRDNSKNTLYLQMNSLRAEDTAVYYCARSLARTTAMDYWGEGTLVTVSSAKTTPPSVYPLAPGSAAQTNSMVTLGCLVKGYFPEPVTVTWNSGSLSSGVHTFPAVLQSDLYTLSSSVTVPSSTWPSETVTCNVAHPASSTKVDKKIVPRDCGCKPCICEPNEVELVFIFPPKPKDVLTITLTPKVTCVVVDISKDDPEVQFSWFVDDVEVHTAQTQPREELFNSTFRSVSELPIMHQDWLNGKEFKCRVNSAGFPAPIEKTISKTKGRPKAPQVYTIPPPKEQMAKDKVSLTCMITDFFPEDITVEWQWNGQPAENYKNTQPIMDTDGSYFVYSKLNVQKSNWEAGNTFTCSVLHEGLHNHHTEKSLSHSPGK
light: not shown
notes: CH name; VH H237 + CH, L chain MRAL-k0; copies: 2 + 2
B2: MB831 (antibody, mouse IgG1, kappa)
heavy: B1 heavy with L291Q, G323A, P327F, K330R
light: not shown
notes: as for B1
B3: MB830 (antibody, mouse IgG1, kappa)
heavy: B1 heavy with L291Q, G323A, P327F, E329Y
light: not shown
notes: as for B1
B4: MB829 (antibody, mouse IgG1, kappa)
heavy: B1 heavy with L291Q, K330R
light: not shown
notes: as for B1
B5: MB821 (antibody, mouse IgG1, kappa)
heavy: B1 heavy with L291Q, N320M, G323A, K330R
light: not shown
notes: as for B1
B6: MB833 (antibody, mouse IgG1, kappa)
heavy: B1 heavy with L291Q, G323A, P327Y, K330R
light: not shown
notes: as for B1
B7: MB812 (antibody, mouse IgG1, kappa)
heavy: B1 heavy with L291Q, N320D
light: not shown
notes: as for B1
B8: MB814 (antibody, mouse IgG1, kappa)
heavy: B1 heavy with L291Q, N320D, G323A, P327Y
light: not shown
notes: as for B1
B9: MB817 (antibody, mouse IgG1, kappa)
heavy: B1 heavy with L291Q, N320M
light: not shown
notes: as for B1
B10: MB834 (antibody, mouse IgG1, kappa)
heavy: B1 heavy with L291Q, G323A, E329Y, K330R
light: not shown
notes: as for B1
B11: MB823 (antibody, mouse IgG1, kappa)
heavy: B1 heavy with L291Q, A322D, G323A, P327F
light: not shown
notes: as for B1
B12: MB827 (antibody, mouse IgG1, kappa)
heavy: B1 heavy with L291Q, P327Y
light: not shown
notes: as for B1
B13: MB811 (antibody, mouse IgG1, kappa)
heavy: B1 heavy with G323A, E329Y
light: not shown
notes: as for B1
B14: MB825 (antibody, mouse IgG1, kappa)
heavy: B1 heavy with L291Q, A322D, G323A, E329Y
light: not shown
notes: as for B1
B15: MB810 (antibody, mouse IgG1, kappa)
heavy: B1 heavy with G323A, P327Y
light: not shown
notes: as for B1
B16: MB828 (antibody, mouse IgG1, kappa)
heavy: B1 heavy with L291Q, E329Y
light: not shown
notes: as for B1
B17: MB832 (antibody, mouse IgG1, kappa)
heavy: B1 heavy with L291Q, G323A, P327Y, E329Y
light: not shown
notes: as for B1
B18: MB824 (antibody, mouse IgG1, kappa)
heavy: B1 heavy with L291Q, A322D, G323A, P327Y
light: not shown
notes: as for B1
B19: MB826 (antibody, mouse IgG1, kappa)
heavy: B1 heavy with L291Q, P327F
light: not shown
notes: as for B1
B20: MB822 (antibody, mouse IgG1, kappa)
heavy: B1 heavy with L291Q, A322D
light: not shown
notes: as for B1
B21: MB809 (antibody, mouse IgG1, kappa)
heavy: B1 heavy with G323A, P327F
light: not shown
notes: as for B1
B22: MB820 (antibody, mouse IgG1, kappa)
heavy: B1 heavy with L291Q, N320M, G323A, E329Y
light: not shown
notes: as for B1
B23: MB818 (antibody, mouse IgG1, kappa)
heavy: B1 heavy with L291Q, N320M, G323A, P327F
light: not shown
notes: as for B1
B24: MB813 (antibody, mouse IgG1, kappa)
heavy: B1 heavy with L291Q, N320D, G323A, P327F
light: not shown
notes: as for B1
B25: MB816 (antibody, mouse IgG1, kappa)
heavy: B1 heavy with L291Q, N320M, A322D, G323A
light: not shown
notes: as for B1
B26: MB835 (antibody, mouse IgG1, kappa)
heavy: B1 heavy with K264D, L291Q, G323A
light: not shown
notes: as for B1
B27: MB815 (antibody, mouse IgG1, kappa)
heavy: B1 heavy with L291Q, N320D, G323A, E329Y
light: not shown
notes: as for B1
B28: MB819 (antibody, mouse IgG1, kappa)
heavy: B1 heavy with L291Q, N320M, G323A, P327Y
light: not shown
notes: as for B1

Assays:
[1] = target: T1, mouse FcγRIII; assay: SPR (Biacore T200); KD of H237-MB630/MRAL-k0 / KD of variant
[2] = target: T2, mouse FcγRII; assay: as above
[3] = target: T1, mouse FcγRIII; assay: SPR (Biacore T200); KD of H237-mIgG1/MRAL-k0 / KD of variant
[4] = target: T2, mouse FcγRII; assay: as above

Binder	Relative mFcγRIII-binding activity (MB630 = 1) [1]	Relative mFcγRII-binding activity (MB630 = 1) [2]	relative mFcγRIII-binding activity (mIgG1 = 1) [3]	relative mFcγRII-binding activity (mIgG1 = 1) [4]
B1	3.4 fold	2.22 fold	0.78 fold	29.2 fold
B2	1.71 fold	1.7 fold	0.39 fold	22.3 fold
B3	0.36 fold	0.37 fold	0.08 fold	4.8 fold
B4	2.75 fold	2.57 fold	0.63 fold	33.8 fold
B5	1.96 fold	1.86 fold	0.45 fold	24.4 fold
B6	1.94 fold	1.92 fold	0.45 fold	25.3 fold
B7	2.93 fold	2.54 fold	0.68 fold	33.4 fold
B8	1.48 fold	1.37 fold	0.34 fold	18 fold
B9	2.27 fold	2.17 fold	0.52 fold	28.5 fold
B10	1.25 fold	1.29 fold	0.29 fold	17 fold
B11	2.13 fold	1.9 fold	0.49 fold	25 fold
B12	1.64 fold	1.63 fold	0.38 fold	21.5 fold
B13	1.87 fold	1.69 fold	0.43 fold	22.2 fold
B14	2.17 fold	2.16 fold	0.5 fold	28.4 fold
B15	2.24 fold	1.58 fold	0.52 fold	20.8 fold
B16	2.14 fold	2.16 fold	0.49 fold	28.4 fold
B17	0.4 fold	0.4 fold	0.09 fold	5.2 fold
B18	2.45 fold	2.13 fold	0.56 fold	28 fold
B19	1.48 fold	1.41 fold	0.34 fold	18.5 fold
B20	4.02 fold	3.33 fold	0.93 fold	43.8 fold
B21	1.92 fold	1.44 fold	0.44 fold	19 fold
B22	1.43 fold	1.49 fold	0.33 fold	19.5 fold
B23	1.25 fold	1.19 fold	0.29 fold	15.6 fold
B24	1.29 fold	1.24 fold	0.3 fold	16.3 fold
B25	2.84 fold	2.31 fold	0.65 fold	30.4 fold
B26	3.05 fold	2 fold	0.7 fold	26.3 fold
B27	1.3 fold	1.34 fold	0.3 fold	17.6 fold
B28	1.4 fold	1.38 fold	0.32 fold	18.1 fold
